Reference: patent US20150038430A1 (published 2015)
Bridge positions count the residues as written; N and C are the ends.

Assays:
Experiment in all cases: MS-based binding affinity
Mcl-1 = target: Mcl-1
Bcl-2 = target: Bcl-2
Bcl-xL = Bcl-xL (UniProt Q07817 1-212)
Bcl-xL, sequence (Q07817 1-212): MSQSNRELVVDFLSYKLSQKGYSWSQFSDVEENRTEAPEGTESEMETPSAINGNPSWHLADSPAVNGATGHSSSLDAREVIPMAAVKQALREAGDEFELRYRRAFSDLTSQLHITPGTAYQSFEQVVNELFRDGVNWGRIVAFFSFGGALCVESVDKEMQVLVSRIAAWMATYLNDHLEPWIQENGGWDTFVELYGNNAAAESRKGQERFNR

Binder	Kd (Mcl-1)	Kd (Bcl-2)	Kd (Bcl-xL)
Ac-IWIAQELRXIGDXFNAYYARR-NH2 (staple 9-13; not fully specified (residues 9, 13); printed as Ac-IWIAQELR$IGD$FNAYYARR-NH2) [SP-4 BIM Stapled]	< 100 nM	< 100 nM	
Ac-IWIAQELRXIGDXFNAYYARR-NH2 (staple 9-13; not fully specified (residues 9, 13); printed as Ac-IWIAQELR$IGD$FNAYYARR-NH2) [SP-4 (BIM-BH3 peptidomimetic macrocycle, Ac-IWIAQELR$IGD$FNAYYARR-NH2)]			< 100 nM
